{"source": "patent US12285502B2", "about": "“HER3 peptides for imaging and radiotherapy” (The General Hospital Corporation, priority 2016, dated 2025)", "key": {"[1]": {"system": "TNBC cell lines", "conditions": "criterion for cell lines considered sensitive (CAL-148, HCC-70, CAL-51, HCC-1395, HS-578T); cited from earlier work"}, "[2]": {"system": "TNBC cell lines", "conditions": "criterion for cell lines considered sensitive (HDQ-P1, CAL-51, HCC-70, CAL-148, HCC-1395, HS-578T); cited from earlier work"}, "[3]": {"system": "HCC-1954 (low HER3 expressing breast cancer) tumors", "design": "species or system Nu/nu mice", "conditions": "mouse, in vivo", "description": "(§1) The peptide was radio labeled with the radiometal ^68Ga eluted from a ^68Ge/^68Ga generator (iThemba, South Africa) in 0.05M HCl. The pH of the elution was adjusted to approximately 4 by 2M=2-[4-(2-hydroxyethyl) piperazin-1-yl]ethanesulfonic acid and 100 ng of peptide reacted with the elution for 10 min at room temperature. Peptide was purified from free ^68Ga by reverse phase C18 cartridge (Waters, Milford, MA) and purity determined by ITLC. The peptide was then prepared in normal saline to a specific activity of approximately 300 MBq/mg for injection into mice. Nu/nu mice bearing either 22RV1 (high HER3 expressing prostate cancer) or HCC-1954 (low HER3 expressing breast cancer) tumors were implanted in the right upper flank of mice and grown to approximately 5-7 mm. Radiolabeled HER3 peptide was injected intravenously and allowed to circulate for 1 h prior to PET imaging. PET images were acquired on an Inveon micro PET/CT (Siemens, Knoxville, TN) for 15 minutes in list mode, followed by CT acquisition. Images were constructed using 3D-MLEM (20 subsets) and corrected for scatter and randoms. The tumor and blood uptake was calculated in a 3D region of interest drawn around the tumor and heart, respectively, using CT guidance. Images were post-processed using VivoQuant (InviCRO, Boston, MA)."}, "[4]": {"system": "22RV1 (high HER3 expressing prostate cancer) tumors", "design": "species or system Nu/nu mice", "conditions": "mouse, in vivo", "description": "as §1"}, "[5]": {"system": "HCC-1954 cells (low HER3)", "assay": "HER3 peptide cellular binding (streptavidin-HRP absorbance, fluorescent microscopy), HCC-1954", "type": "cell-based", "conditions": "fixed HCC-1954 cells, 250 nM peptide", "description": "(§2) Two cell lines, MDA-MB-453 breast cancer cells which express moderate levels of HER3 and HCC-1954 cells which express low levels of HER3, were chosen to assess the ability of the peptide to discriminate between relatively close expression levels in vitro. Cells were seeded at a density of 1×10^5 cells/well in 96 well plates (Fisher) and grown overnight for 24 h in fetal bovine serum supplemented medium. HER3 peptide or a control peptide were added at 250 nM in media and incubated for 1 h at 37° C. Cells were washed 3× with PBS and bound peptide detected by addition of streptavidin-HRP. Cells were once again washed and bound peptide detected by addition of ABTS and absorbance read at 405 nm. Visual confirmation of peptide binding was confirmed by fluorescent microscopy. MDA-MB-453 and HCC-1954 cells were fixed in 10% formalin and dried onto microscope slides overnight. Following rehydration with TBS, slides were blocked with 2% BSA in TBS for 1 h prior to addition of peptide at a concentration of 250 nM in 0.1% TBST and incubation at room temperature for 1 h. Cells were washed 3× with 0.1% TBST and neutravidin-Alexafluor488 was added to cells and incubated at room temperature for 1 h. Cells were washed, mounted with Vectorshield mounting media with DAPI (Vector Labs, Burlingame, CA) and visualized by inverted microscope (Olympus, Tokyo, Japan)."}, "[6]": {"biological_target": "EGFR (Homo sapiens, UniProt P00533)", "conditions": "250 nM peptide, 405 nm", "description": "(§3) The purity and molecular weight were determined by high performance liquid chromatography and mass spectrometry. […] Following blocking with 1% non-fat dry milk, increasing concentrations of peptide were incubated with target protein for 1 h at 37° C. Wells were washed with 0.1% TBST, and bound peptide detected by addition of HRP-conjugated streptavidin (Abeam, Cambridge, UK), washing and ABTS substrate incubation for 10 minutes. Absorbance at 405 nm was read by spectrophotometer. […] Plates were washed and bound peptide once again detected by addition of streptavidin-HRP and ABTS and absorbance read at 405 nm."}, "[7]": {"biological_target": "HER3 ECD (Homo sapiens, UniProt P21860)", "sequence (P21860 20-643 limits assumed)": "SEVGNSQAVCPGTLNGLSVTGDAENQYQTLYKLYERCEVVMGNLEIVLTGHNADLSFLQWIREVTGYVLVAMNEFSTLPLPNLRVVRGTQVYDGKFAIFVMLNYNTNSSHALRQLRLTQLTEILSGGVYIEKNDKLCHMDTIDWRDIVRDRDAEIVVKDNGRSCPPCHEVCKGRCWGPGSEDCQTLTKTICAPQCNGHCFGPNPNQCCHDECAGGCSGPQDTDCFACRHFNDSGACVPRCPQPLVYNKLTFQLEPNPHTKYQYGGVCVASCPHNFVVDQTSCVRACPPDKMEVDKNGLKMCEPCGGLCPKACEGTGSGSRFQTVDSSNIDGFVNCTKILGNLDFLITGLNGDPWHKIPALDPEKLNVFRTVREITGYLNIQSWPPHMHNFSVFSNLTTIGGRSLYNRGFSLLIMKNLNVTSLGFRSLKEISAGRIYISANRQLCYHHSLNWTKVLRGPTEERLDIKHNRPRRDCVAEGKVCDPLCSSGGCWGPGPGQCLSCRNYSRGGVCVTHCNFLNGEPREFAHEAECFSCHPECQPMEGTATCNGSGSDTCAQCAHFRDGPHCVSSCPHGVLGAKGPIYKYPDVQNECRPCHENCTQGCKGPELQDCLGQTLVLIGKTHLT", "conditions": "peptide ELISA absorbance", "description": "as §3"}, "[8]": {"conditions": "mouse, in vivo, iv", "text": "Following PET acquisition, tumors and relevant organs were removed from mice, weighed, and total activity for each was quantified by a Wallac gamma counter (Perkin Elmer, Waltham, MA). […] The specific activity of the labeled peptide was 296±25.9 MBq/mg."}, "[9]": {"system": "human MDA-MB-453 tumors", "design": "species or system mice", "conditions": "mouse, in vivo", "description": "Following imaging, mice were treated with 100 mg/kg of lapatinib every 12 hours for 48 hours following PET imaging. At the end of 48 hours, mice were imaged in the exact same manner as before treatment."}, "[10]": {"system": "MDA-MB-453 breast cancer cells (moderate HER3)", "assay": "HER3 peptide cellular binding (streptavidin-HRP absorbance, fluorescent microscopy), MDA-MB-453", "type": "cell-based", "description": "as §2"}}, "note": "Like-named read-outs stand apart in the source and are kept apart here."}
{"compound": "CC(C)NC[C@@H](C(=O)N1CCN(c2ncnc3c2[C@H](C)C[C@H]3O)CC1)c1ccc(Cl)cc1", "note": "[GDC-0068]", "values": [{"measurement": "IC50", "setting": "[1]", "value": "< 1000", "unit": "nM"}]}
{"compound": "CS(=O)(=O)N1CCN(Cc2cc3nc(-c4cccc5[nH]ncc45)nc(N4CCOCC4)c3s2)CC1", "note": "[GDC-0941]", "values": [{"measurement": "IC50", "setting": "[2]", "value": "< 1000", "unit": "nM"}]}
{"compound": "CC(C)C[C@@H]1NC(=O)[C@@H](NC(=O)CNC(=O)CNC(=O)CNC(=O)CCNC(=S)Nc2ccc(CC3CN(CC(=O)O)CCN(CC(=O)O)CCN3CC(=O)O)cc2)CSSC[C@@H](C(=O)O)NC(=O)[C@H](CO)NC(=O)[C@H](CCCNC(=N)N)NC(=O)[C@H](Cc2ccccc2)NC(=O)[C@H](CCCCN)NC(=O)[C@H]([C@@H](C)O)NC(=O)[C@@H]2CCCN2C1=O", "note": "(stereo partly drawn) [^68Ga-(NOTA-NCS)-HER3P1, ^68Ga-(NOTA-NCS)-beta A-G-G-G-C-L-P-T-K-F-R-S-C, metal not drawn]", "values": [{"measurement": "tumor uptake by PET imaging", "setting": "[3]", "value": "much lower levels"}, {"measurement": "standardized tumor to blood ratios (TBR)", "setting": "[3]; iv", "value": "0.69-0.94"}, {"measurement": "off-target peptide accumulation", "setting": "[4]", "value": "minimal"}, {"measurement": "tumor uptake by PET imaging", "setting": "[4]", "value": "high"}, {"measurement": "standardized tumor to blood ratios (TBR)", "setting": "[4]; iv", "value": "1.60-3.32"}]}
{"compound": "C-L-P-T-K-F-R-S-C [HER3P1]", "values": [{"measurement": "binding by fluorescent microscopy", "setting": "[5]", "value": "almost no visualization"}, {"measurement": "absorbance of binding to EGFR", "setting": "[6]", "value": "0.21±0.09"}, {"measurement": "selectivity/specificity for HER3 over other proteins (EGFR, HER2, BSA)", "setting": "[7]", "value": "approximately 4 fold"}, {"measurement": "selectivity/specificity for HER3 over other proteins (EGFR, HER2, BSA)", "setting": "[7]; listed as displayed peptide conjugated to biotin", "value": "greater than 4 fold"}, {"measurement": "biodistribution, HER3+ tumors", "setting": "[8]", "value": "0.50±0.18", "unit": "% ID/g"}, {"measurement": "biodistribution, intestines", "setting": "[8]", "value": "0.48±0.15", "unit": "% ID/g"}, {"measurement": "biodistribution, kidneys", "setting": "[8]", "value": "10.1±1.67", "unit": "% ID/g"}, {"measurement": "biodistribution, lungs", "setting": "[8]", "value": "0.70±0.14", "unit": "% ID/g"}, {"measurement": "biodistribution, stomach", "setting": "[8]", "value": "0.30±0.07", "unit": "% ID/g"}, {"measurement": "SUVmean", "setting": "[9]", "value": "0.42±0.04"}, {"measurement": "cell binding absorbance", "setting": "[10]; MDA-MB-453, 250 nM peptide, 1 h 37° C., 405 nm", "value": "0.29±0.06"}, {"measurement": "binding by fluorescent microscopy", "setting": "[10]; fixed MDA-MB-453 cells, 250 nM peptide", "value": "high binding"}]}
